Publication doi:10.1101/2020.05.28.122556

Legend:
[1] = biological target: EED (amino acids 40-441) (human) (UniProt O75530); test: fluorescence polarisation
[2] = biological target: 5-carboxyfluorescein (5-FAM, single isomer) labelled JARID2-K116me3 peptide; test: fluorescence polarisation

EED (amino acids 40-441) (human), sequence (O75530 40-441): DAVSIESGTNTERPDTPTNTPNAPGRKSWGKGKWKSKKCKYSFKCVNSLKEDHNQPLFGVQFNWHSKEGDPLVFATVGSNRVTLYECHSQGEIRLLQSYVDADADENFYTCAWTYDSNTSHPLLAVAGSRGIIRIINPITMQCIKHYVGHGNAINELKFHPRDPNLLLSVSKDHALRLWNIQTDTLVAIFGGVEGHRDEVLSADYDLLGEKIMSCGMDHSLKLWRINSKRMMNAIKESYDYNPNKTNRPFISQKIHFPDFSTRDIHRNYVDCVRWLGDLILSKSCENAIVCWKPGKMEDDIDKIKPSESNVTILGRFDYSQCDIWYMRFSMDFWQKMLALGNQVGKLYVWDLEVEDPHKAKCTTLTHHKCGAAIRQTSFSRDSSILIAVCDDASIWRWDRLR
EED (amino acids 40-441), sequence (O75530 40-441): as above

Substance	Kd [1] [µM]	also measured
PALI1-K1241me1 peptide	240	–
EED (amino acids 40-441) (from UniProt O75530-1 40-441) (domain or fragment)	–	Kd [2]: 8.07 µM
H3K27me3 peptide	41.3	–
PALI1-K1241me3 peptide	8.47	–
PALI1-K1241me2 peptide	18.8	–
PALI1-K1214me3 peptide	–	fold lower affinity than PALI1-K1219me3 and PALI1-K1241me3 [1]: 4 fold
PALI1-K1219me3 peptide	7.53	–
